The values below come from patent US20110280881A1, “NOVEL ANTI-HSP90 MONOCLONAL ANTIBODY” (RIKEN, priority 2010, published 2011).

In one test the test system is cell surface HSP90. Briefly: FACS staining of cell surface HSP90 on DC2.4 cells not subjected to membrane permeabilization. In kind it is binding. Particulars: DC2.4 cells not permeabilized, biotinylated antibody 1 μg/ml, 4° C. Here is the method: (1) 1.1 mg of the biotinylation reagent EZ-Link (registered trademark) Sulfo-NHS-Biotin (21217, Takara Bio Inc.) was dissolved in 250 μl of pure water (concentration 10 mM). 2 of the solution of the biotinylation reagent was added to 100 of an antibody protein (1 mg/ml), and the reaction was allowed to proceed while cooling on ice for 2 hours. After the reaction, the unreacted biotin reagent was removed using Centricon[5k] (Millipore). The reaction product was adjusted to a final concentration of 1 mg/ml and stored at 4° C. (2) DC2.4 not subjected to membrane permeabilization (1×10^6 cells/0.1 ml), along with the biotinylated anti-HSP90 antibody (1 μg/ml), was incubated at 4° C. for 30 minutes. For negative control, DC2.4 was likewise incubated in an antibody-free PBS. (3) After the unreacted antibody was removed, DC2.4 (1×10^6 cells/0.1 ml), along with PE-cy5 streptavidin (eBioscience, 15-4317-82, used at a concentration of 0.5 μg/ml), was incubated at 4° C. for 30 minutes. (4) After the unreacted PE-cy5 streptavidin was removed, the cells were analyzed by FACS (Becton Dickinson).
The right panels of FIGS. 2A and B show FACS data (histograms) for DC2.4 cells stained with each monoclonal antibody in the same manner as Example 2.

For the next test, the system named is HSP90. Briefly: Western blot of DC2.4 dendritic cell line extract with anti-HSP90 antibodies. In kind it is binding. To be noted: SDS-PAGE. Here is the method: A BALE/c mouse was twice immunized with 50 μg of human recombinant HSP90α (prepared using an Escherichia coli expression vector supplied by Professor Takayuki Nemoto at the Nagasaki University School of Dentistry; see J. Biol. Chem. 272:26179-26187, 1997). The adjuvant used was 50 μl of TiterMax Gold (TiterMax, Ga., USA). Three days after final immunization, splenocytes were taken out from the immunized mouse and fused with P3U1 myeloma cells in a 1:1 ratio by means of polyethylene glycol 4000. The fused cells were seeded to a 96-well plate at 5000 cells/well and cultured in an HAT selection culture broth (an RPMI containing 10% FCS, supplemented with 0.1 mM hypoxanthine, 0.016 mM thymidine, and […] aminopterin) for 10 days. The antibodies against HSP90a present in the supernatants in wells containing proliferated cells were detected by ELISA. The hybridomas secreting the antibodies against HSP90α were re-seeded at 0.2 cells/well and further cultured using an HT selection culture broth (an RPMI containing 10% FCS, supplemented with 0.1 mM hypoxanthine and 0.016 mM thymidine) for 10 days. For the antibodies in the supernatants of proliferated cells, it was confirmed using ELISA and Western blotting that antibodies against HSP90 were secreted. […]
Background: Immunoblotting shows a protein as a band on a membrane.

For the next test, the system named is OT-II CD4+ T cells. Briefly: In vitro antigen presentation assay, DC2.4 cells with OT-II CD4+ T cells, IFNγ. Type of test: cell-based, mouse. To be noted: DC2.4 pulsed with series of doses, IFNγ secreted. Here is the method:
(§1) Next, DC2.4 cells were pulsed with a series of doses of 6H8-OVA (fractions 15 to 19) and free OVA (fraction 33) and incubated along with OT-I CD8^+ T cells and OT-II CD4^+ T cells [splenocytes of an OT-II mouse were recovered, and CD11b-positive cells were removed according to a standard protocol using BD IMag anti mouse CD11b magnetic particles DM (BD Biosciences Pharmingen, 558013); next, CD4-positive cells were purified according to a standard protocol using BD IMag anti mouse CD4 particles DM (BD Biosciences Pharmingen, 551539); the cells obtained were used as the OT-II CD4^+ T cells], and the amount of IFNγ secreted from T cells was measured, whereby the cross-presentation potential of 6H8-OVA was evaluated.

A further test relates to OT-I CD8+ T cells. Briefly: In vitro cross-presentation assay, DC2.4 cells with OT-I CD8+ T cells, IFNγ. In kind it is cell-based, mouse. Here is the method: A cross-presentation assay was performed using each fraction as an antigen. DC2.4 cells were pulsed with 5 μg/ml (30 μg/ml, only for the fraction 33) of each fraction or 1 mg/ml of free OVA for 3 hours. […]
as §1

B1: 6H8: anti-HSP90 monoclonal antibody produced by hybridoma FERM BP-11222; epitope … (antibody)
VH: QVQLQQSGPELVKPGASVRISCKASGYTFTSYYIHWVKQRPGQGLEWIGWIYPGNVNTKYNEKFKGKATLTADKSSSTAYMQLSSLTSEDSAVYFCARYGNYPFAYWGQGTLVTVSAAKTTAPSVYPLAPVCGDTTGSSVTLGCLVKGYF
VL: DVVMTQTPLSLPVSLGDQASISCRSSQSLVHSNGNTYLHWYLQKPGQSPKLLIYKVSNRFSGVPDRFSGSGSGTDFTLKISRVEAEDLGVYFCSQSTHVPPTFGGGTKLEIKRADAAPTVSIFPPSSEQLTSGGASVVCFLNNFYPKDINVKWKIDGS
In the case of B1, in the test with cell surface HSP90, the “recognition of cell surface HSP90 (FACS)” value is on record as “recognized cell surface HSP90 with high sensitivity”. Further, in the test on HSP90, the “detection of HSP90 in Western blot” value is “detected HSP90 as a single band”.

B2: 6H8-OVA: high molecular weight conjugate of the 6H8 antibody and maleimide-activated OVA (conjugate)
VH: QVQLQQSGPELVKPGASVRISCKASGYTFTSYYIHWVKQRPGQGLEWIGWIYPGNVNTKYNEKFKGKATLTADKSSSTAYMQLSSLTSEDSAVYFCARYGNYPFAYWGQGTLVTVSAAKTTAPSVYPLAPVCGDTTGSSVTLGCLVKGYF
VL: DVVMTQTPLSLPVSLGDQASISCRSSQSLVHSNGNTYLHWYLQKPGQSPKLLIYKVSNRFSGVPDRFSGSGSGTDFTLKISRVEAEDLGVYFCSQSTHVPPTFGGGTKLEIKRADAAPTVSIFPPSSEQLTSGGASVVCFLNNFYPKDINVKWKIDGS
chain: GSIGAASMEFCFDVFKELKVHHANENIFYCPIAIMSALAMVYLGAKDSTRTQINKVVRFDKLPGFGDSIEAQCGTSVNVHSSLRDILNQITKPNDVYSFSLASRLYAEERYPILPEYLQCVKELYRGGLEPINFQTAADQARELINSWVESQTNGIIRNVLQPSSVDSQTAMVLVNAIVFKGLWEKAFKDEDTQAMPFRVTEQESKPVQMMYQIGLFRVASMASEKMKILELPFASGTMSMLVLLPDEVSGLEQLESIINFEKLTEWTSSNVMEERKIKVYLPRMKMEEKYNLTSVLMAMGITDVFSSSANLSGISSAESLKISQAVHAAHAEINEAGREVVGSAEAGVDAASVSEEFRADHPFLFCIKHIATNAVLFFGRCVSP
In the case of B2, the “antigen presentation to OT-II CD4+ T cells” value in the test with OT-II CD4+ T cells was “weak, although it was better than free OVA”. Further, the “induction of IFNγ production by OT-I CD8+ T cells” value in the test with OT-I CD8+ T cells (DC2.4 pulsed 3 hours with fractions 15 to 21, less than 5 μg/ml protein) is “efficiently induced IFNγ production by CD8^+ T cells”. The “effectiveness on OT-I CD8+ T cells relative to free OVA” value in the test with OT-I CD8+ T cells (DC2.4 pulsed with series of doses, IFNγ secreted) is given as “at least 100 times”.
